Columns and labels:
Format in all cases: biochemical
[1] = Metabolism of 4-pyrrolidylacetophenone by P450 aluC09 and mutants; settings: percent of substrate being converted; 0.125 mg/ml, 27° C., 16-20 hours; [CYP] per enzyme as in Table 8
Procedure: (§1) Lyophilised material of mutants of CYP450aluC09, ferredoxinaluF03 and ferredoxin reductaseSCF15A was made as described in examples 3 and 4 and suspended in water (0.5 mL per vial) and biocatalysis was performed at 27° C. in the following conditions: 50 mM potassium phosphate pH 7.4, 5 mM MgCl2, 0.125 mg/ml substrate compound such as diclofenac (Sigma-Aldrich, UK), Aceclofenac (Tokyo Chemical Industry UK Ltd, UK), Indomethacin (Sigma-Aldrich, UK), Flufenamic acid (Sigma-Aldrich, UK), Napropamide (Sigma-Aldrich, UK), celecoxib (LC Laboratories, USA), valsartan (Tokyo Chemical Industry UK Ltd, UK), ruxolitinib (LC Laboratories, USA), 4-pyrrolidylacetophenone (Sigma-Aldrich, UK), tofacitinib (LC Laboratories, USA), bosentan (CarboSynth Ltd, UK), buparvaquone (MedChemtronica, Sweden), BIRB796 (Stratech Scientific Limited, UK), epothilone B (LC Laboratories, USA), ritonavir (Tokyo Chemical Industry UK Ltd, UK) or tivantinib (MedChemtronica, Sweden), P450AluC09 (concentration as in Table 8), 5 mM G6P, 1 mM NADP, 2 UN/ml G6PDH in a final volume of 100 μL. After 16-20 hours at 200 rpm (5 cm orbital shaker, Kuhner AG, Switzerland), reactions were extracted with an equal volume of acetonitrile, centrifuged to remove precipitated proteins and conversion assessed by UPLC-MS analysis.
(§2) However, of particular note when considering P450 concentration are the results for mutants M12, M20 and M34, as well as the deleterious impact on the range of substrate utility in mutants M39 and M40.

[2] = Hydroxylation of diclofenac catalysed by cytochrome P450 aluC09 and mutants (UPLC-PDA-MS); settings: for 4′,5-dihydroxy-diclofenac 1.38 mins / 4′-hydroxy-diclofenac (1) 1.62 mins / 5-hydroxy-diclofenac (2) 1.58 mins / Diclofenac (Substrate) 1.81 mins: % by UV peak area at 275 nm, 0.125 mg/ml substrate, 27° C., 16-20 hours; for Hydroxylated Ratio hydroxy 1:hydroxy 2: ratio of UV peak areas at 275nm
Procedure: as §1
(§3) UPLC data was obtained as follows:
(§4) Column: Acquity UPLC BEH Shield RP18 1.7 μm 2.1 mm i.d. 50 mm length
(§5) Solvents: H2O, B: Acetonitrile, both with 0.1% Formic acid
(§6) Detector: Waters Acquity UPLC PDA (UV-Vis detection) and Waters Acquity UPLC QDA (MS)
Illustrative results for the hydroxylation of diclofenac by CYP450aluC09 and selected T291x mutants are summarised below in Table 3 with representative chromatograms resented in FIG. 3a-c; retention times: diclofenac 1.85-1.88 minutes, 5-hydroxydiclofenac 1.60-1.63 minutes, 4′-hydroxydiclofenac 1.65-1.68 minutes, 4′,5-dihydroxydiclofenac 1.40-1.42 minutes. The chromatographic retention times and mass spectra coincided with those of authentic samples.

[3] = Metabolism of tivantinib by P450 aluC09 and mutants; settings: percent of substrate being converted; 0.125 mg/ml, 27° C., 16-20 hours; [CYP] per enzyme as in Table 8
Procedure: as §1, §2

[4] = Metabolism of valsartan by P450 aluC09 and mutants; settings: percent of substrate being converted; 0.125 mg/ml, 27° C., 16-20 hours; [CYP] per enzyme as in Table 8
Procedure: as §1, §2

[5] = Metabolism of bosentan by P450 aluC09 and mutants; settings: percent of substrate being converted; 0.125 mg/ml, 27° C., 16-20 hours; [CYP] per enzyme as in Table 8
Procedure: as §1, §2

[6] = Metabolism of tofacitinib by P450 aluC09 and mutants; settings: percent of substrate being converted; 0.125 mg/ml, 27° C., 16-20 hours; [CYP] per enzyme as in Table 8
Procedure: as §1, §2

[7] = Metabolism of epothilone B by P450 aluC09 and mutants; settings: percent of substrate being converted; 0.125 mg/ml, 27° C., 16-20 hours; [CYP] per enzyme as in Table 8
Procedure: as §1, §2

[8] = Metabolism of celecoxib by P450 aluC09 and mutants; settings: percent of substrate being converted; 0.125 mg/ml, 27° C., 16-20 hours; [CYP] per enzyme as in Table 8
Procedure: as §1, §2

[9] = Metabolism of ruxolitinib by P450 aluC09 and mutants; settings: percent of substrate being converted; 0.125 mg/ml, 27° C., 16-20 hours; [CYP] per enzyme as in Table 8
Procedure: as §1, §2

[10] = Hydroxylation of flufenamic acid catalysed by cytochrome P450 aluC09 and mutants; settings: for Flufenamic Acid (Substrate) 1.93 mins / Hydroxy-Flufenamic Acid (1) 1.69 mins / Hydroxy-Flufenamic Acid (2) 1.65 mins: % by UV peak area at 275 nm, 0.125 mg/ml substrate, 27° C., 16-20 hours; for Hydroxylated Ratio 1:2: flufenamic acid, ratio of UV peak areas at 275 nm
Procedure: as §1, §3, §4, §5, §6
Flufenamic acid elutes at 1.93 minutes, hydroxy-flufenamic acid 1 elutes at 1.68 minutes and hydroxy-flufenamic acid 2 elutes at 1.65 minutes.

[11] = O-demethylation of indomethacin catalysed by cytochrome P450 aluC09 and mutants; settings: % by UV peak area at 275 nm; 0.125 mg/ml substrate, 27° C., 16-20 hours
Procedure: as §1, §3, §4, §5, §6

[12] = Metabolism of BIRB796 by P450 aluC09 and mutants; settings: percent of substrate being converted; 0.125 mg/ml, 27° C., 16-20 hours; [CYP] per enzyme as in Table 8
Procedure: as §1, §2

[13] = Hydroxylation of aceclofenac catalysed by cytochrome P450 aluC09 and mutants; settings: for Aceclofenac (Substrate) (1.80 mins) / Dihydroxy-Aceclofenac (1.42 mins) / Hydroxy-Aceclofenac (1) (1.64 min) / Hydroxy-Aceclofenac (2) (1.60 min): % by UV peak area at 275 nm, 0.125 mg/ml substrate, 27° C., 16-20 hours; for Hydroxylated Ratio 2:1: aceclofenac, ratio of UV peak areas at 275 nm
Procedure: as §1, §3, §4, §5, §6
Chromatograms are provided in FIGS. 5a-c; aceclofenac elutes at 1.80 minutes, hydroxy-aceclofenac acid 1 elutes at 1.64 minutes, hydroxy-aceclofenac acid 2 elutes at 1.60 minutes and dihydroxy-aceclofenac elutes at 1.42 minutes.

[14] = Metabolism of ritonavir by P450 aluC09 and mutants; settings: percent of substrate being converted; 0.125 mg/ml, 27° C., 16-20 hours; [CYP] per enzyme as in Table 8
Procedure: as §1, §2

[15] = Hydroxylation / de-N-ethylation of napropamide catalysed by cytochrome P450 aluC09 and mutants
Procedure: as §1, §3, §4, §5, §6
Napropamide elutes at 1.76 minutes, unidentified metabolite (−2 Da) elutes at 1.90 minutes, desethyl-napropamide elutes at 1.62 minutes, hydroxy-napropamide 1 elutes at 1.53 minutes and hydroxy-napropamide 2 elutes at 1.52 minutes and the desethyl-hydroxy-napropamide product elutes at 1.41 minutes.

[16] = % by UV peak area at 275 nm, 0.125 mg/ml substrate, 27° C., 16-20 hours

Molecule | % conversions (avg) 4-pyrrolidylacetophenone [1] [%] | 4′,5-dihydroxy-diclofenac 1.38 mins [2] [%] | 4′-hydroxy-diclofenac (1) 1.62 mins [2] [%] | 5-hydroxy-diclofenac (2) 1.58 mins [2] [%] | Diclofenac (Substrate) 1.81 mins [2] [%] | Hydroxylated Ratio hydroxy 1:hydroxy 2 ([2]; diclofenac) | % conversions (avg) Tivantinib [3] [%] | % conversions (avg) Valsartan [4] [%] | % conversions (avg) Bosentan [5] [%] | % conversions (avg) Tofacitinib [6] [%] | % conversions (avg) Epothilone B [7] [%] | % conversions (avg) Celecoxib [8] [%] | % conversions (avg) Ruxolitinib [9] [%] | Flufenamic Acid (Substrate) 1.93 mins [10] [%] | Hydroxy-Flufenamic Acid (1) 1.69 mins [10] [%] | Hydroxy-Flufenamic Acid (2) 1.65 mins [10] [%] | Hydroxylated Ratio 1:2 [10] | Indomethacin (1.74 mins) [11] [%] | O-demethyl-Indomethacin (1.52 mins) [11] [%] | % conversions (avg) Ritonavir [14] [%] | further results
aluC09M24: cytochrome P450 aluC09 double mutant T291E, A47I; amino acid sequence SEQ ID NO: 84 (protein, listed as Amycolatopsis lurida) MTDVEETTATLPLARKCPFSPPPEYERLRRESPVSRVGLPSGQTAWILTRLEDIREMLSSPHFSSDRQSPSFPLMVARQIRREDKPFRPSLIAMDPPEHSRARRDVVGEFTVKRMKALQPRIQQIVDEHLDALLAGPKPADLVQALSLPVPSLVICELLGVPYSDHEFFQSCSSRMLSREVTAEERMTAFEQLENYLDELVTKKEANATEDDLLGRQILKQRETGEADHGELVGLAFLLLIAGHETTANMISLGTVTLLENPDQLAKIKADPGKTLAAIEELLRVFTIAEEATSRFATADVEIGGTLIRAGEGVVGLSNAGNHDPDGFENPDTFDIERGARHHVAFGFGVHQCLGQNLARLELQIVFDTLFRRVPGLRIAVPVDELPFKHDSTIYGLHALPVTW | 7.6 | 1.8 | 34.2 | 8.0 | 57.0 | 4.3 | 6.8 | 21.2 | 100 | 0 | 52.3 | 3.6 | 37.7 | 89.2 | 7.7 | 3.1 | 2.5 | 94.2 | 5.8 | 30.4 | regioselectivity of hydroxylation (product ratio 4′-hydroxydiclofenac : 5-hydroxydiclofenac) ([2]; diclofenac): over four-fold; % conversions (avg) BIRB796 [12]: 18.9%; Aceclofenac (Substrate) (1.80 mins) [13]: 63.4%; Dihydroxy-Aceclofenac (1.42 mins) [13]: 5.0%; Hydroxy-Aceclofenac (1) (1.64 min) [13]: 14.3%; Hydroxy-Aceclofenac (2) (1.60 min) [13]: 17.4%; Hydroxylated Ratio 2:1 [13]: 1.2
aluC09M18: cytochrome P450 aluC09 mutant T291Q; amino acid sequence SEQ ID NO: 20 (protein, listed as Amycolatopsis lurida) MTDVEETTATLPLARKCPFSPPPEYERLRRESPVSRVGLPSGQTAWALTRLEDIREMLSSPHFSSDRQSPSFPLMVARQIRREDKPFRPSLIAMDPPEHSRARRDVVGEFTVKRMKALQPRIQQIVDEHLDALLAGPKPADLVQALSLPVPSLVICELLGVPYSDHEFFQSCSSRMLSREVTAEERMTAFEQLENYLDELVTKKEANATEDDLLGRQILKQRETGEADHGELVGLAFLLLIAGHETTANMISLGTVTLLENPDQLAKIKADPGKTLAAIEELLRVFTIAEQATSRFATADVEIGGTLIRAGEGVVGLSNAGNHDPDGFENPDTFDIERGARHHVAFGFGVHQCLGQNLARLELQIVFDTLFRRVPGLRIAVPVDELPFKHDSTIYGLHALPVTW | 14.1 | 1.9 | 45.5 | 12.3 | 41.6 | 3.7 | 59.7 | 27.1 | 100 | 2.2 | 24.8 | 3.7 | 38.5 | 86.1 | 9.1 | 4.8 | 1.9 | 83.6 | 16.4 | 53.3 | % conversions (avg) BIRB796 [12]: 24.3%; Aceclofenac (Substrate) (1.80 mins) [13]: 10.2%; Dihydroxy-Aceclofenac (1.42 mins) [13]: 49.1%; Hydroxy-Aceclofenac (1) (1.64 min) [13]: 5.9%; Hydroxy-Aceclofenac (2) (1.60 min) [13]: 34.9%; Hydroxylated Ratio 2:1 [13]: 5.9; Desethyl Napropamide (1.62 min) [15, 16]: 49.5%; Desethyl-hydroxy-Napropamide (1.41 min) [15, 16]: 4.1%; Hydroxy-Napropamide (1) (1.53 min) [15, 16]: 1.4%; Hydroxy-Napropamide (2), (1.52 min) [15, 16]: 2.5%; M-2Da (unidentified) (1.89 min) [15, 16]: 5.7%; Napropamide (substrate) [15, 16]: 38.3%; Hydroxylated Ratio 2:1 ([15]; napropamide, ratio of UV peak areas): 1.8
aluC09M30: cytochrome P450 aluC09 double mutant T291E, V315L; amino acid sequence SEQ ID NO: 108 (protein, listed as Amycolatopsis lurida) MTDVEETTATLPLARKCPFSPPPEYERLRRESPVSRVGLPSGQTAWALTRLEDIREMLSSPHFSSDRQSPSFPLMVARQIRREDKPFRPSLIAMDPPEHSRARRDVVGEFTVKRMKALQPRIQQIVDEHLDALLAGPKPADLVQALSLPVPSLVICELLGVPYSDHEFFQSCSSRMLSREVTAEERMTAFEQLENYLDELVTKKEANATEDDLLGRQILKQRETGEADHGELVGLAFLLLIAGHETTANMISLGTVTLLENPDQLAKIKADPGKTLAAIEELLRVFTIAEEATSRFATADVEIGGTLIRAGEGVLGLSNAGNHDPDGFENPDTFDIERGARHHVAFGFGVHQCLGQNLARLELQIVFDTLFRRVPGLRIAVPVDELPFKHDSTIYGLHALPVTW | 16.6 | 3.6 | 43.4 | 13.0 | 41.6 | 3.3 | 2.7 | 20 | 80.4 | 0 | 32.2 | 3.9 | 37.5 | 93.8 | 3.7 | 2.4 | 1.5 | 90.1 | 9.9 | 20.9 | % conversions (avg) BIRB796 [12]: 18%; Aceclofenac (Substrate) (1.80 mins) [13]: 24.1%; Dihydroxy-Aceclofenac (1.42 mins) [13]: 18.4%; Hydroxy-Aceclofenac (1) (1.64 min) [13]: 15.0%; Hydroxy-Aceclofenac (2) (1.60 min) [13]: 42.5%; Hydroxylated Ratio 2:1 [13]: 2.8
aluC09M21: cytochrome P450 aluC09 mutant T291Y; amino acid sequence SEQ ID NO: 32 (protein, listed as Amycolatopsis lurida) MTDVEETTATLPLARKCPFSPPPEYERLRRESPVSRVGLPSGQTAWALTRLEDIREMLSSPHFSSDRQSPSFPLMVARQIRREDKPFRPSLIAMDPPEHSRARRDVVGEFTVKRMKALQPRIQQIVDEHLDALLAGPKPADLVQALSLPVPSLVICELLGVPYSDHEFFQSCSSRMLSREVTAEERMTAFEQLENYLDELVTKKEANATEDDLLGRQILKQRETGEADHGELVGLAFLLLIAGHETTANMISLGTVTLLENPDQLAKIKADPGKTLAAIEELLRVFTIAEYATSRFATADVEIGGTLIRAGEGVVGLSNAGNHDPDGFENPDTFDIERGARHHVAFGFGVHQCLGQNLARLELQIVFDTLFRRVPGLRIAVPVDELPFKHDSTIYGLHALPVTW | 15.8 |  |  |  |  |  | 29.6 | 19 | 59 | 2.7 | 33.8 | 1 | 19 |  |  |  |  |  |  | 28.2 | 

— US11618906B2, “Hydroxylation techniques” (HYPHA DISCOVERY LTD., priority 2018, dated 2023)
